The target of assay [1] is T1, human TL1A extracellular domain with N-terminal HIS and FLAG tag (human, UniProt O95150 72-251).
T1 construct: the whole entry is named; also called TNFSF15
T1 sequence: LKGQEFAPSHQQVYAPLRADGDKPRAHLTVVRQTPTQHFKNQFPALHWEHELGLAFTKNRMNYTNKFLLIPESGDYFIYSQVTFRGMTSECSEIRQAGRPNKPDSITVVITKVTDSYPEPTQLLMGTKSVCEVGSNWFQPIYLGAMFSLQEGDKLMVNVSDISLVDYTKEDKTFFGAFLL
The assay can be described thus: SPR Run 7, antibody on Protein A, TL1A 5 ug/mL, timepoint 44. An excerpt:
(§1) 1.5. Antibody expression and antigen binding as determined by SPR. Using a CM5 sensor chip (GE Healthcare) Protein A (Pierce) was coupled to the chip surface using an amine coupling kit (GE Healthcare). Protein A was coupled on flow cell 1 and 2 (or alternatively 3 and 4) using a BIACORE® T200. […] The amount of supernatant or purified protein (as well as the concentration) injected during the capture stage varied between runs and is specified in the header of the Tables 3-11. At the end of injection of the supernatant or purified antibody the change in response units was measured. This value was reported as Capture Level in Tables 3-11. […] The response units were measured prior to the end of the dissociation phase. […] The sensorgrams were double referenced (flow cell 2 is subtracted from flow cell 1 and a buffer blank). As there were a large number of antibody variants to screen, these were screened across different runs (Tables 3-11). […] A summary of the conditions used in each run is below:
(§2) 2.1. […] In some experiment the antibodies were purified using Protein A chromatography (See 1.4) and purified antibodies were used in BIACORE® (GE Healthcare) experiments.

In assay [2] the target is T1, human TL1A extracellular domain with …. The experiment in a line: SPR Run 7, antibody on Protein A, TL1A 5 ug/mL, timepoint 220.
Source text: as §1, §2

B1: 320-541 (antibody, human IgG1, name in Kabat numbering, V domains shown)
VH: QVQLVQSGAEVKKPGASVKVSCKASGYTFTSYDINWVRQAPGQGLEWMGWLNPNSGQTGYAQKFQGRVTMTADRSTSTAYMELSSLRSEDTAVYYCAREVPETAAFEYWGQGTLVTVSS
VL: QSVLTQPPSVSGAPGQRVTISCTSSSSDIGAGLGVHWYQQLPGTAPKLLIEGYYNRPSGVPDRFSGSKSGTSASLTITGLLPEDEGDYYCQSYDGTLSALFGGGTKLTVLG
notes: full-length human IgG1, lambda
Consider B1, for which the “TL1A Binding Level (Early)” value in assay [1] is 94 RU. Also, the “TL1A Binding Level (Late)” value in assay [2] amounted to 84 RU.

B2: 320-548 (antibody, human IgG1, name in Kabat numbering, V domains shown)
VH: QVQLVQSGAEVKKPGASVKVSCKASGYTFTSYDINWVRQAPGQGLEWMGWLNPNSGNAGYAQKFQGRVTMTADRSTSTAYMELSSLRSEDTAVYYCAREVPETAAFEYWGQGTLVTVSS
VL: QSVLTQPPSVSGAPGQRVTISCTSSSSDIGAGLGVHWYQQLPGTAPKLLIEGYYNRPSGVPDRFSGSKSGTSASLTITGLLPEDEGDYYCQSYDGTLSALFGGGTKLTVLG
notes: as for B1
As to B2, the “TL1A Binding Level (Early)” value in assay [1] was found to be 74 RU. Besides, the “TL1A Binding Level (Late)” value in assay [2] came out at 68 RU.

B3: 320-556 (antibody, human IgG1, name in Kabat numbering, V domains shown)
VH: QVQLVQSGAEVKKPGASVKVSCKASGYTFTSYDINWVRQAPGQGLEWMGWLNPNSGNYGYAQKFQGRVTMTADRSTSTAYMELSSLRSEDTAVYYCAREVPETAAFEYWGQGTLVTVSS
VL: QSVLTQPPSVSGAPGQRVTISCTSSSSDIGAGLGVHWYQQLPGTAPKLLIEGYYNRPSGVPDRFSGSKSGTSASLTITGLLPEDEGDYYCQSYDGTLSALFGGGTKLTVLG
notes: as for B1
For the molecule B3, the “TL1A Binding Level (Early)” value in assay [1] worked out at 100 RU. Also, the “TL1A Binding Level (Late)” value in assay [2] stood at 90 RU.

B4: 320-552 (antibody, human IgG1, name in Kabat numbering, V domains shown)
VH: QVQLVQSGAEVKKPGASVKVSCKASGYTFTSYDINWVRQAPGQGLEWMGWLNPNSGNHGYAQKFQGRVTMTADRSTSTAYMELSSLRSEDTAVYYCAREVPETAAFEYWGQGTLVTVSS
VL: QSVLTQPPSVSGAPGQRVTISCTSSSSDIGAGLGVHWYQQLPGTAPKLLIEGYYNRPSGVPDRFSGSKSGTSASLTITGLLPEDEGDYYCQSYDGTLSALFGGGTKLTVLG
notes: as for B1
For B4, in assay [1], the “TL1A Binding Level (Early)” value stood at 104 RU. In addition, the “TL1A Binding Level (Late)” value in assay [2] amounted to 97 RU.

B5: 320-550 (antibody, human IgG1, name in Kabat numbering, V domains shown)
VH: QVQLVQSGAEVKKPGASVKVSCKASGYTFTSYDINWVRQAPGQGLEWMGWLNPNSGNQGYAQKFQGRVTMTADRSTSTAYMELSSLRSEDTAVYYCAREVPETAAFEYWGQGTLVTVSS
VL: QSVLTQPPSVSGAPGQRVTISCTSSSSDIGAGLGVHWYQQLPGTAPKLLIEGYYNRPSGVPDRFSGSKSGTSASLTITGLLPEDEGDYYCQSYDGTLSALFGGGTKLTVLG
notes: as for B1
Regarding B5, the “TL1A Binding Level (Early)” value in assay [1] stood at 112 RU. Also, the “TL1A Binding Level (Late)” value in assay [2] was found to be 103 RU.

B6: 320-553 (antibody, human IgG1, name in Kabat numbering, V domains shown)
VH: QVQLVQSGAEVKKPGASVKVSCKASGYTFTSYDINWVRQAPGQGLEWMGWLNPNSGNKGYAQKFQGRVTMTADRSTSTAYMELSSLRSEDTAVYYCAREVPETAAFEYWGQGTLVTVSS
VL: QSVLTQPPSVSGAPGQRVTISCTSSSSDIGAGLGVHWYQQLPGTAPKLLIEGYYNRPSGVPDRFSGSKSGTSASLTITGLLPEDEGDYYCQSYDGTLSALFGGGTKLTVLG
notes: as for B1
On to B6, for which the “TL1A Binding Level (Early)” value in assay [1] amounted to 84 RU. Besides, in assay [2], the “TL1A Binding Level (Late)” value came to 78 RU.

B7: 320-542 (antibody, human IgG1, name in Kabat numbering, V domains shown)
VH: QVQLVQSGAEVKKPGASVKVSCKASGYTFTSYDINWVRQAPGQGLEWMGWLNPNSGDTGYAQKFQGRVTMTADRSTSTAYMELSSLRSEDTAVYYCAREVPETAAFEYWGQGTLVTVSS
VL: QSVLTQPPSVSGAPGQRVTISCTSSSSDIGAGLGVHWYQQLPGTAPKLLIEGYYNRPSGVPDRFSGSKSGTSASLTITGLLPEDEGDYYCQSYDGTLSALFGGGTKLTVLG
notes: as for B1
Consider B7, for which the “TL1A Binding Level (Early)” value in assay [1] came to 97 RU. Besides, the “TL1A Binding Level (Late)” value in assay [2] came to 86 RU.

B8: 320-555 (antibody, human IgG1, name in Kabat numbering, V domains shown)
VH: QVQLVQSGAEVKKPGASVKVSCKASGYTFTSYDINWVRQAPGQGLEWMGWLNPNSGNWGYAQKFQGRVTMTADRSTSTAYMELSSLRSEDTAVYYCAREVPETAAFEYWGQGTLVTVSS
VL: QSVLTQPPSVSGAPGQRVTISCTSSSSDIGAGLGVHWYQQLPGTAPKLLIEGYYNRPSGVPDRFSGSKSGTSASLTITGLLPEDEGDYYCQSYDGTLSALFGGGTKLTVLG
notes: as for B1
On to B8, for which the “TL1A Binding Level (Early)” value in assay [1] was 62 RU. In assay [2], the “TL1A Binding Level (Late)” value came out at 30 RU.

B9: 320-557 (antibody, human IgG1, name in Kabat numbering, V domains shown)
VH: QVQLVQSGAEVKKPGASVKVSCKASGYTFTSYDINWVRQAPGQGLEWMGWLNPNSGNTAYAQKFQGRVTMTADRSTSTAYMELSSLRSEDTAVYYCAREVPETAAFEYWGQGTLVTVSS
VL: QSVLTQPPSVSGAPGQRVTISCTSSSSDIGAGLGVHWYQQLPGTAPKLLIEGYYNRPSGVPDRFSGSKSGTSASLTITGLLPEDEGDYYCQSYDGTLSALFGGGTKLTVLG
notes: as for B1
B9: in assay [1], the “TL1A Binding Level (Early)” value stood at 26 RU. In addition, the “TL1A Binding Level (Late)” value in assay [2] is 6 RU.

B10: 320-545 (antibody, human IgG1, name in Kabat numbering, V domains shown)
VH: QVQLVQSGAEVKKPGASVKVSCKASGYTFTSYDINWVRQAPGQGLEWMGWLNPNSGLTGYAQKFQGRVTMTADRSTSTAYMELSSLRSEDTAVYYCAREVPETAAFEYWGQGTLVTVSS
VL: QSVLTQPPSVSGAPGQRVTISCTSSSSDIGAGLGVHWYQQLPGTAPKLLIEGYYNRPSGVPDRFSGSKSGTSASLTITGLLPEDEGDYYCQSYDGTLSALFGGGTKLTVLG
notes: as for B1
As for B10, in assay [1], the “TL1A Binding Level (Early)” value stood at 109 RU. Also, the “TL1A Binding Level (Late)” value in assay [2] was found to be 100 RU.

B11: 320-551 (antibody, human IgG1, name in Kabat numbering, V domains shown)
VH: QVQLVQSGAEVKKPGASVKVSCKASGYTFTSYDINWVRQAPGQGLEWMGWLNPNSGNDGYAQKFQGRVTMTADRSTSTAYMELSSLRSEDTAVYYCAREVPETAAFEYWGQGTLVTVSS
VL: QSVLTQPPSVSGAPGQRVTISCTSSSSDIGAGLGVHWYQQLPGTAPKLLIEGYYNRPSGVPDRFSGSKSGTSASLTITGLLPEDEGDYYCQSYDGTLSALFGGGTKLTVLG
notes: as for B1
B11: the “TL1A Binding Level (Early)” value in assay [1] amounted to 44 RU. Further, in assay [2], the “TL1A Binding Level (Late)” value stood at 36 RU.

B12: 320-559 (antibody, human IgG1, name in Kabat numbering, V domains shown)
VH: QVQLVQSGAEVKKPGASVKVSCKASGYTFTSYDINWVRQAPGQGLEWMGWLNPNSGNTQYAQKFQGRVTMTADRSTSTAYMELSSLRSEDTAVYYCAREVPETAAFEYWGQGTLVTVSS
VL: QSVLTQPPSVSGAPGQRVTISCTSSSSDIGAGLGVHWYQQLPGTAPKLLIEGYYNRPSGVPDRFSGSKSGTSASLTITGLLPEDEGDYYCQSYDGTLSALFGGGTKLTVLG
notes: as for B1
For B12, the “TL1A Binding Level (Early)” value in assay [1] came to 9 RU. Also, the “TL1A Binding Level (Late)” value in assay [2] was determined as 5 RU.

B13: 320-546 (antibody, human IgG1, name in Kabat numbering, V domains shown)
VH: QVQLVQSGAEVKKPGASVKVSCKASGYTFTSYDINWVRQAPGQGLEWMGWLNPNSGWTGYAQKFQGRVTMTADRSTSTAYMELSSLRSEDTAVYYCAREVPETAAFEYWGQGTLVTVSS
VL: QSVLTQPPSVSGAPGQRVTISCTSSSSDIGAGLGVHWYQQLPGTAPKLLIEGYYNRPSGVPDRFSGSKSGTSASLTITGLLPEDEGDYYCQSYDGTLSALFGGGTKLTVLG
notes: as for B1
Turning to B13, the “TL1A Binding Level (Early)” value in assay [1] amounted to 67 RU. For the same molecule, the “TL1A Binding Level (Late)” value in assay [2] worked out at 61 RU.

B14: 320-543 (antibody, human IgG1, name in Kabat numbering, V domains shown)
VH: QVQLVQSGAEVKKPGASVKVSCKASGYTFTSYDINWVRQAPGQGLEWMGWLNPNSGHTGYAQKFQGRVTMTADRSTSTAYMELSSLRSEDTAVYYCAREVPETAAFEYWGQGTLVTVSS
VL: QSVLTQPPSVSGAPGQRVTISCTSSSSDIGAGLGVHWYQQLPGTAPKLLIEGYYNRPSGVPDRFSGSKSGTSASLTITGLLPEDEGDYYCQSYDGTLSALFGGGTKLTVLG
notes: as for B1
With B14, the “TL1A Binding Level (Early)” value in assay [1] amounted to 138 RU. Also, the “TL1A Binding Level (Late)” value in assay [2] is 126 RU.

B15: 320-554 (antibody, human IgG1, name in Kabat numbering, V domains shown)
VH: QVQLVQSGAEVKKPGASVKVSCKASGYTFTSYDINWVRQAPGQGLEWMGWLNPNSGNLGYAQKFQGRVTMTADRSTSTAYMELSSLRSEDTAVYYCAREVPETAAFEYWGQGTLVTVSS
VL: QSVLTQPPSVSGAPGQRVTISCTSSSSDIGAGLGVHWYQQLPGTAPKLLIEGYYNRPSGVPDRFSGSKSGTSASLTITGLLPEDEGDYYCQSYDGTLSALFGGGTKLTVLG
notes: as for B1
In the case of B15, in assay [1], the “TL1A Binding Level (Early)” value amounted to 66 RU. In addition, the “TL1A Binding Level (Late)” value in assay [2] was found to be 51 RU.

B16: 320-544 (antibody, human IgG1, name in Kabat numbering, V domains shown)
VH: QVQLVQSGAEVKKPGASVKVSCKASGYTFTSYDINWVRQAPGQGLEWMGWLNPNSGKTGYAQKFQGRVTMTADRSTSTAYMELSSLRSEDTAVYYCAREVPETAAFEYWGQGTLVTVSS
VL: QSVLTQPPSVSGAPGQRVTISCTSSSSDIGAGLGVHWYQQLPGTAPKLLIEGYYNRPSGVPDRFSGSKSGTSASLTITGLLPEDEGDYYCQSYDGTLSALFGGGTKLTVLG
notes: as for B1
B16: in assay [1], the “TL1A Binding Level (Early)” value turned out to be 120 RU. The “TL1A Binding Level (Late)” value in assay [2] was 112 RU.

B17: 320-549 (antibody, human IgG1, name in Kabat numbering, V domains shown)
VH: QVQLVQSGAEVKKPGASVKVSCKASGYTFTSYDINWVRQAPGQGLEWMGWLNPNSGNSGYAQKFQGRVTMTADRSTSTAYMELSSLRSEDTAVYYCAREVPETAAFEYWGQGTLVTVSS
VL: QSVLTQPPSVSGAPGQRVTISCTSSSSDIGAGLGVHWYQQLPGTAPKLLIEGYYNRPSGVPDRFSGSKSGTSASLTITGLLPEDEGDYYCQSYDGTLSALFGGGTKLTVLG
notes: as for B1
As for B17, the “TL1A Binding Level (Early)” value in assay [1] was 50 RU. Besides, the “TL1A Binding Level (Late)” value in assay [2] is 45 RU.

These data come from patent US20170081400A1 (CEPHALON, published 2017).
